Test results published in patent US20240124563A1.
Where two headings read alike, the source gives them in different places.

Tests used:
[1] = target: human MSLN full-length protein, recombinant, on CHO-K1 or HEK293T cells (human) (UniProt Q13421); test: competitive FACS on CHO-K1-human MSLN-2C8 cells vs Biotin-Tab142; competitor at 0.16 nM
[2] = target: human MSLN full-length protein, recombinant, on CHO-K1 or HEK293T cells (human) (UniProt Q13421); test: competitive FACS on CHO-K1-human MSLN-2C8 cells vs Biotin-Tab131; competitor at 8 nM
[3] = target: human MSLN full-length protein on transfected cells (CHO-K1-hMSLN clones 2C8, 2D11, 2C5; HEK293T-hMSLN clones B8, 2A4, 2A7) (human) (UniProt Q13421); test: FACS, CHO-K1-hMSLN-2C8 cells, antibody 0.032 nM
human MSLN full-length protein on transfected cells (CHO-K1-hMSLN clones 2C8, 2D11, 2C5; HEK293T-hMSLN clones B8, 2A4, 2A7) (human), sequence (Q13421 other isoform, or with tags, fused parts or gaps limits assumed): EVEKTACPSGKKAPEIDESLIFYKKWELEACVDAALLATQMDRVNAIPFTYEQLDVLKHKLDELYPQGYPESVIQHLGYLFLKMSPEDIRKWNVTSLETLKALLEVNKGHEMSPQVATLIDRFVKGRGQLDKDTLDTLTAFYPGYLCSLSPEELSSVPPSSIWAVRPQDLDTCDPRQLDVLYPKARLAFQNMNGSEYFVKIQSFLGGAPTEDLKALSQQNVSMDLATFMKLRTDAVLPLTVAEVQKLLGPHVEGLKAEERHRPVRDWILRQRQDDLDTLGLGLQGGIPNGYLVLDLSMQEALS

[4] = target: human MSLN full-length protein, recombinant, on CHO-K1 or HEK293T cells (human) (UniProt Q13421); test: competitive FACS on CHO-K1-human MSLN-2C8 cells vs Biotin-Tab142; competitor at 20 nM
[5] = target: monkey MSLN full-length protein on HEK293T cells (monkey); test: FACS, HEK293T-monkey-MSLN cells, antibody 100 nM
[6] = target: human MSLN protein endogenously expressed on tumor cells (Hela, OVCAR3) (human) (UniProt Q13421); test: FACS, OVCAR3 cells, antibody 20 nM
human MSLN protein endogenously expressed on tumor cells (Hela, OVCAR3) (human), sequence (Q13421 other isoform, or with tags, fused parts or gaps): as the sequence (Q13421 other isoform, or with tags, fused parts or gaps limits assumed) above, with P14R counted along it

[7] = target: human MSLN protein endogenously expressed on tumor cells (Hela, OVCAR3) (human) (UniProt Q13421); test: FACS, OVCAR3 cells, antibody 0.0064 nM
[8] = target: human MSLN-R3-rFc protein (human) (UniProt Q13421); test: ELISA, antibody 1 nM
[9] = target: human MSLN-R3-3 polypeptide (purchased from GL Biochem, Cat. No. 406676) (human); test: ELISA, antibody 1 nM
human MSLN-R3-3 polypeptide (purchased from GL Biochem, Cat. No. 406676) (human), sequence (peptide, as listed by the source): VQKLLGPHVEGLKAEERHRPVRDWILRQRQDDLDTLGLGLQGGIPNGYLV

[10] = target: human MSLN full-length protein on transfected cells (CHO-K1-hMSLN clones 2C8, 2D11, 2C5; HEK293T-hMSLN clones B8, 2A4, 2A7) (human) (UniProt Q13421); test: FACS, CHO-K1-hMSLN-2C8 cells, antibody 0.8 nM
[11] = target: human MSLN full-length protein, recombinant, on CHO-K1 or HEK293T cells (human) (UniProt Q13421); test: competitive FACS on CHO-K1-human MSLN-2C8 cells vs Biotin-Tab142; competitor at 0.064 nM
[12] = target: human MSLN protein endogenously expressed on tumor cells (Hela, OVCAR3) (human) (UniProt Q13421); test: FACS, OVCAR3 cells, antibody 100 nM
[13] = target: monkey MSLN full-length protein on HEK293T cells (monkey); test: FACS, HEK293T-monkey MSLN cells
[14] = target: human MSLN full-length protein, recombinant, on CHO-K1 or HEK293T cells (human) (UniProt Q13421); test: competitive FACS on CHO-K1-human MSLN-2C8 cells vs Biotin-Tab142; competitor at 0.032 nM
[15] = target: human MSLN-R3-rFc protein (human) (UniProt Q13421); test: ELISA, antibody 4 nM
[16] = target: human MSLN full-length protein on transfected cells (CHO-K1-hMSLN clones 2C8, 2D11, 2C5; HEK293T-hMSLN clones B8, 2A4, 2A7) (human) (UniProt Q13421); test: FACS, CHO-K1-hMSLN-2C8 cells, antibody 0.0064 nM
[17] = target: monkey MSLN full-length protein on HEK293T cells (monkey); test: FACS, HEK293T-monkey-MSLN cells, antibody 0.00128 nM
[18] = target: monkey MSLN full-length protein on HEK293T cells (monkey); test: FACS, HEK293T-monkey-MSLN cells, antibody 4 nM
[19] = target: monkey MSLN full-length protein on HEK293T cells (monkey); test: FACS, HEK293T-monkey MSLN cells; remark: listed apart in the source
[20] = target: human MSLN protein endogenously expressed on tumor cells (Hela, OVCAR3) (human) (UniProt Q13421); test: FACS, OVCAR3 cells, antibody 2 nM
[21] = target: human MSLN full-length protein, recombinant, on CHO-K1 or HEK293T cells (human) (UniProt Q13421); test: competitive FACS on CHO-K1-human MSLN-2C8 cells vs Biotin-Tab142; competitor at 100 nM
[22] = target: human MSLN full-length protein, recombinant, on CHO-K1 or HEK293T cells (human) (UniProt Q13421); test: competitive FACS on CHO-K1-human MSLN-2C8 cells vs Biotin-Tab142; competitor at 4 nM
[23] = target: human MSLN full-length protein, recombinant, on CHO-K1 or HEK293T cells (human) (UniProt Q13421); test: FACS, HEK293T-hMSLN-B8 cells
[24] = target: human MSLN full-length protein, recombinant, on CHO-K1 or HEK293T cells (human) (UniProt Q13421); test: competitive FACS on CHO-K1-human MSLN-2C8 cells vs Biotin-Tab142; competitor at 200 nM
[25] = target: monkey MSLN full-length protein on HEK293T cells (monkey); test: FACS, HEK293T-monkey-MSLN cells, antibody 0.0064 nM
[26] = target: human MSLN full-length protein, recombinant, on CHO-K1 or HEK293T cells (human) (UniProt Q13421); test: competitive FACS on CHO-K1-human MSLN-2C8 cells vs Biotin-Tab142; competitor at 0.8 nM
[27] = target: human MSLN full-length protein, recombinant, on CHO-K1 or HEK293T cells (human) (UniProt Q13421); test: competitive FACS on CHO-K1-human MSLN-2C8 cells vs Biotin-Tab142; competitor at 0.32 nM
[28] = target: human MSLN protein endogenously expressed on tumor cells (Hela, OVCAR3) (human) (UniProt Q13421); test: FACS, OVCAR3 cells
[29] = target: human MSLN-R3-rFc protein (human) (UniProt Q13421); test: ELISA, antibody 0.032 nM

human MSLN full-length protein, recombinant, on CHO-K1 or HEK293T cells (human), sequence (Q13421 other isoform, or with tags, fused parts or gaps limits assumed): as the sequence (Q13421 other isoform, or with tags, fused parts or gaps limits assumed) above

In the case of hIgG1 (antibody), the MFI of Biotin-Tab142 [1] is reported as 43600, the MFI of Biotin-Tab131 [2] is reported as 13000 and the FACS signal (MFI) [3] is reported as 59. It also gave an MFI of Biotin-Tab142 [4] of 42600, an FACS signal (MFI) [5] of 127 and an FACS signal (MFI) [6] of 78. For the same substance, the MFI [6] was 329, the FACS signal (MFI) [7] was 74 and the OD450 nm [8] was 0.09. The OD450 nm [9] was 0.06, the FACS signal (MFI) [10] was 80 and the MFI of Biotin-Tab142 [11] was 23600. The FACS signal (MFI) [12] was 93, the Max MFI [13] was 137 and the MFI of Biotin-Tab142 [14] was 43700. For the same substance, the OD450 nm [15] was 0.15, the FACS signal (MFI) [16] was 65 and the FACS signal (MFI) [17] was 84. The FACS signal (MFI) [18] was 85, the Max MFI [19] was 104 and the MFI [20] was 255. For the same substance, the MFI of Biotin-Tab142 [21] was 41200, the MFI of Biotin-Tab142 [22] was 43100 and the Max MFI [23] was 77. The MFI of Biotin-Tab142 [24] was 24000, the FACS signal (MFI) [25] was 85 and the MFI of Biotin-Tab142 [26] was 44300. It also gave an MFI of Biotin-Tab142 [27] of 23300, a Max MFI [28] of 147 and an OD450 nm [29] of 0.11.
